The supplement of paper PMC9170038
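Also: bound reporter read as fluorescence of individual clusters on recovered sequencing chips by microscopy, with normalized cluster intensities fitted with a binding model.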

These sequences were tested on K4 kissing-loop RNA reporter (assay: apparent KD of K4 kissing-loop reporter; higher = weaker reporter binding). Settings: Eterna round: R107; input ligand: theophylline 20 uM.
Protocol: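 RNA-MaP round R107: designed RNA switches with theophylline, tryptophan, arginine or FMN aptamers are transcribed on-chip within common flanks. They are titrated with a labelled K4 kissing-loop RNA reporter in RNA-MaP buffer (100 mM Tris pH 7.5, 80 mM KCl, 4 mM MgCl2), without ligand or with the indicated ligand. Median apparent KD per design.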
With “UUUUUAAUCGCAGAUACCAGUCCAGAAUGAAUACUAUAGUGAUGUUAUAAUAAAGGGAAGGACCCUUGGCAGCUGUACUAUAUUU [AstrosSsTheB#6]” the “apparent KD of K4 kissing-loop reporter” value was 300 nM. “GCAAACCUCAGUGAUGUUGAGAAAUCGGAAGGAGCGCGUGAAAACGCAGGUAGGUCGCCGACACAUGAAGUAUCUUCGUGUUUGC [Arginine A K4 22]” was tested, and the “apparent KD of K4 kissing-loop reporter” value was 328 nM. In the case of “CCGGUUCCAACGCUGACUGAAGAACAUGAUACCAGUCGAGGACUCGACCCUUGGCAGCAUUAUAGAGUGAUGUUCGCUUCAGAAA [theeternabot_sameState_KL_Theo_A_15]”, the “apparent KD of K4 kissing-loop reporter” value is reported as 367 nM. “AGAGUUAUGAGAGGAUAUGCGGCUAGUACUCAAAGAGUACUAGCAGCGGAGUGAUGUUCUGUGAAAGCAGAAGGUUCAUAACUCA [#07 K4 FMN B Same State]” was tested, and the “apparent KD of K4 kissing-loop reporter” value was 907 nM. In the case of “CGCGACGUGGUCACGCCAGUCUCGUUAACCAAGGAUAUUGAGAAGACAAGAAGGUGGAUGUACCAUAGUGAUGUUGUGGUCAGUA [theeternabot_sameState_KL_FMN_A_17]”, the “apparent KD of K4 kissing-loop reporter” value is reported as 448 nM. For “AAGUGUGUGGCGGCCGCCACUAGAAUCCAGUGAUGUUGGAGUUAUCAUAUAAUUGAUAAUCAACAUAGGACCGGGCCAUAUAGAA [Same State - Tryptophan B (Freestyle 6)]”, the “apparent KD of K4 kissing-loop reporter” value was 511 nM. With “UUUUAAAUGUCUGAUACCAGAGAAAAUAUAUGUAGUGAUGUUAUAUACAAAUUAAAUAAGCUCCCUUGGCAGCAGUAUUAAUUUU [AstrosExc-TheB#10]” the “apparent KD of K4 kissing-loop reporter” value was 761 nM. With “CCUUCCGACACGGCCGCCACUAAUUUCAUCAGAUUGCCCGGAUUUCCAAGAUAGUGAUGUUGUACUAGGACCGGGUGUCAGGUCG [theeternabot_exclusion_KL_Trp_B_16]” the “apparent KD of K4 kissing-loop reporter” value was 760 nM. With “AAGUGUUCUAGUGAUACCAGACAUUUCAAUUACAUUAAUAUAGCUAAGUGAUGUUUAGCAGUCCCUUGGCAGCACUAUUUCACUA [JR_SSTheophyB_Sub016]” the “apparent KD of K4 kissing-loop reporter” value was 149 nM. For “CACGAUGAAUUCUCUAGGAGUGAUGUUUUUCGAGGACCGGUACGGCCGCCACUCGGACCAGGAACGUGGGAGCGGCGAAAAGACU [jbmullin]”, the “apparent KD of K4 kissing-loop reporter” value was 500 nM. In the case of “AUGAGGUGACUAAAUAAUAAGGGAAUUGAUACCAGACAGAAUUCUGUCCCUUGGCAGCAGUGAUGUUGUUGCAAGUCAGCUCAAA [AK1.1 Exc Theophylline A]”, the “apparent KD of K4 kissing-loop reporter” value is reported as 198 nM. For “UGUCAUUGGUCGGCCGCCACUAGGACCGGGUAUAACCUAGUGAUGUUAGUGAGUACGGCCGCCACUAGGACCGGGACCGAUGACU [KL-SSTryp-B120 #DoubleAptamer]”, the “apparent KD of K4 kissing-loop reporter” value was 572 nM. For “UUCUUGAUGGAAACAUCGAGGAUUACUGAUACCAGUAUCGAUAGAUACCCUUGGCAGCAGUAUCGGUGAUCACGAGUGAUGUUCG [Ex Theophylline A K4 11]”, the “apparent KD of K4 kissing-loop reporter” value was 757 nM. For “CGAUGGAUGGCAGGAUAUAGACAUUGAGUGAUGUUCGAUGAUUAUCCAUAUUCCCGUCACCUAAGACUAGAAGGGCCAUCCAUCG”, the “apparent KD of K4 kissing-loop reporter” value was 191 nM. In the case of “ACCUACGAUCACAAUAGUGAUUGUAGGAACUAGGAUAUGCUGAAAAGCAGAAGGAGUGAUGUUCCGUCAUGAAUAACAUGACAAA [FmnAX 5 #OpenEnded #K4Late #CoaxialStacking]”, the “apparent KD of K4 kissing-loop reporter” value is reported as 594 nM. In the case of “UGAGAUAUGAGGGAUACCAGCCAUAAGGAAAGUGUGAUGAGUGAUGUUCUGACAAGCCAAGGCCCUUGGCAGCUUUAAUAGCAUC [whbob_SS_Theo_B_th77]”, the “apparent KD of K4 kissing-loop reporter” value is reported as 167 nM. In the case of “GUGCGCGCGGCGGCCGCCACUCGCAUGAGAGUGAUGUUCUCGGGACUGACGGAAGUCAGUCAUGGGAGGACCGGGCCGGGCUGCG [#2 Same State - Tryptophan B Attempt #13 (HarryS)]”, the “apparent KD of K4 kissing-loop reporter” value is reported as 1140 nM. For “UGGAGUUGACGAAAAGUCAACUCCAGAGAAGGAGCGGACGAAAGUCCAGGUAGGUCGCUCACUACCAGUGAUGUUGGUACUUGAA”, the “apparent KD of K4 kissing-loop reporter” value was 449 nM.

Same assay, conditions: Eterna round: R107; input ligand: tryptophan 2.4 mM
For “AAAUAUUGUUACCUGUUAACAUAGGGCCAACGAGGACCGGUACGGCCGCCACUCGUCUCAUAGCGAGUGAUGUUCGCACCGCCCA”, the “apparent KD of K4 kissing-loop reporter” value was 126 nM. “UGACUGGACUGAAGGAGCGCAAAACUCCUAGUGAUGUUAGGAAAACGAGACAAAGUCUCGAUGCAGGUAGGUCGCAGUCUAGUCU” was tested, and the “apparent KD of K4 kissing-loop reporter” value was 182 nM. For “AGACCACAAAGUGGUCAGUGUUCGCUGCGGCGAGGACCGGUACGGCCGCCACUCGCGAGUGAUGUUCGCGAGCGCAGCGAACACA [Omei KL Tryp A Exc A v3]”, the “apparent KD of K4 kissing-loop reporter” value was 88.5 nM. “CGAGUGAUGUUCGAAGAGUUGUUAAGCGAUACCAGCCAGGAAACUGGCCCUUGGCAGCGUAAUAAAUAAAUAAAUAAAUGAUCAC [Theophylline A Exclusion; Euphoria Solution]” was tested, and the “apparent KD of K4 kissing-loop reporter” value was 372 nM. For “AAUAAAAUCACGGCCGCCACUGAUUACCAUAUUAGGAGUGAUGUUCCUAUGACUAUAUAAUUUAACAGGACCGGGUGAAUAUUUA [JR_ExcTryptoB_Sub011]”, the “apparent KD of K4 kissing-loop reporter” value was 94.3 nM. With “UGGAGUUGACGAAAAGUCAACUCCUGGGAAGGAGCGGACGAAAGUCCAGGUAGGUCGCCCACUACCAGUGAUGUUGGUACUUCAA” the “apparent KD of K4 kissing-loop reporter” value was 209 nM. For “CAUGGAGUGAUGCUCCAUGAUCGGGCUUGGCAGGAUAUGGGAUUUUCCAGAAGGGUCGAUCCCAGCGAGUGAUGUUCGCUGGUCU [Exclusion FMN A GF 26]”, the “apparent KD of K4 kissing-loop reporter” value was 116 nM. In the case of “UUAGUGACAAGUCAGAUUCUGACAAUUGAUACCAGAUAGAAUUCUAUCCCUUGGCAGCAGUGAUGUUGUUGCAAAUAGUCACAUU [AK3 Exc Theophylline A]”, the “apparent KD of K4 kissing-loop reporter” value is reported as 232 nM. For “GCAGACACGCAGUGAUGUUGCGAAACGGAAGGAGCGCGUGAAAACGCAGGUAGGUCGCCGACACAUAAAUUAUAAUUUUGUUUGC [Arginine A K4 14]”, the “apparent KD of K4 kissing-loop reporter” value was 205 nM. With “UUUUGGUUCUGAGGAUAUUCGAAGAAAUAUAGUGAUGUUAUAUAAGGAGGAGGAUGGAGGGAGGAAGGAGAAGGCAGAAGAGGAG [ExFMNB.I]” the “apparent KD of K4 kissing-loop reporter” value was 417 nM. “AAGCGUGUGGCGGCCGCCACUAGUCUCCAGUGAUGUUGGAGAGAUCACGUAAGUGAUCUCCGACAUAGGACCGGGCCAUAUGGAA [Same State - Tryptophan B (Freestyle 23)]” was tested, and the “apparent KD of K4 kissing-loop reporter” value was 214 nM. With “UUUUUAAUCGCAGAUACCAGUCCAGAAUGAAUACUAUAGUGAUGUUAUAAUAAAGGGAAGGACCCUUGGCAGCUGUACUAUAUUU [AstrosSsTheB#6]” the “apparent KD of K4 kissing-loop reporter” value was 299 nM. “GCAAACCUCAGUGAUGUUGAGAAAUCGGAAGGAGCGCGUGAAAACGCAGGUAGGUCGCCGACACAUGAAGUAUCUUCGUGUUUGC [Arginine A K4 22]” was tested, and the “apparent KD of K4 kissing-loop reporter” value was 243 nM. With “CCGGUUCCAACGCUGACUGAAGAACAUGAUACCAGUCGAGGACUCGACCCUUGGCAGCAUUAUAGAGUGAUGUUCGCUUCAGAAA [theeternabot_sameState_KL_Theo_A_15]” the “apparent KD of K4 kissing-loop reporter” value was 117 nM. For “AGAGUUAUGAGAGGAUAUGCGGCUAGUACUCAAAGAGUACUAGCAGCGGAGUGAUGUUCUGUGAAAGCAGAAGGUUCAUAACUCA [#07 K4 FMN B Same State]”, the “apparent KD of K4 kissing-loop reporter” value was 1350 nM. For “CGCGACGUGGUCACGCCAGUCUCGUUAACCAAGGAUAUUGAGAAGACAAGAAGGUGGAUGUACCAUAGUGAUGUUGUGGUCAGUA [theeternabot_sameState_KL_FMN_A_17]”, the “apparent KD of K4 kissing-loop reporter” value was 388 nM. With “AAGUGUGUGGCGGCCGCCACUAGAAUCCAGUGAUGUUGGAGUUAUCAUAUAAUUGAUAAUCAACAUAGGACCGGGCCAUAUAGAA [Same State - Tryptophan B (Freestyle 6)]” the “apparent KD of K4 kissing-loop reporter” value was 416 nM. For “UUUUAAAUGUCUGAUACCAGAGAAAAUAUAUGUAGUGAUGUUAUAUACAAAUUAAAUAAGCUCCCUUGGCAGCAGUAUUAAUUUU [AstrosExc-TheB#10]”, the “apparent KD of K4 kissing-loop reporter” value was 518 nM. “CCUUCCGACACGGCCGCCACUAAUUUCAUCAGAUUGCCCGGAUUUCCAAGAUAGUGAUGUUGUACUAGGACCGGGUGUCAGGUCG [theeternabot_exclusion_KL_Trp_B_16]” was tested, and the “apparent KD of K4 kissing-loop reporter” value was 775 nM. “AAGUGUUCUAGUGAUACCAGACAUUUCAAUUACAUUAAUAUAGCUAAGUGAUGUUUAGCAGUCCCUUGGCAGCACUAUUUCACUA [JR_SSTheophyB_Sub016]” was tested, and the “apparent KD of K4 kissing-loop reporter” value was 131 nM. In the case of “CACGAUGAAUUCUCUAGGAGUGAUGUUUUUCGAGGACCGGUACGGCCGCCACUCGGACCAGGAACGUGGGAGCGGCGAAAAGACU [jbmullin]”, the “apparent KD of K4 kissing-loop reporter” value is reported as 343 nM. “AUGAGGUGACUAAAUAAUAAGGGAAUUGAUACCAGACAGAAUUCUGUCCCUUGGCAGCAGUGAUGUUGUUGCAAGUCAGCUCAAA [AK1.1 Exc Theophylline A]” was tested, and the “apparent KD of K4 kissing-loop reporter” value was 212 nM. With “UGUCAUUGGUCGGCCGCCACUAGGACCGGGUAUAACCUAGUGAUGUUAGUGAGUACGGCCGCCACUAGGACCGGGACCGAUGACU [KL-SSTryp-B120 #DoubleAptamer]” the “apparent KD of K4 kissing-loop reporter” value was 91.9 nM. For “UUCUUGAUGGAAACAUCGAGGAUUACUGAUACCAGUAUCGAUAGAUACCCUUGGCAGCAGUAUCGGUGAUCACGAGUGAUGUUCG [Ex Theophylline A K4 11]”, the “apparent KD of K4 kissing-loop reporter” value was 607 nM. With “CGAUGGAUGGCAGGAUAUAGACAUUGAGUGAUGUUCGAUGAUUAUCCAUAUUCCCGUCACCUAAGACUAGAAGGGCCAUCCAUCG” the “apparent KD of K4 kissing-loop reporter” value was 198 nM. With “ACCUACGAUCACAAUAGUGAUUGUAGGAACUAGGAUAUGCUGAAAAGCAGAAGGAGUGAUGUUCCGUCAUGAAUAACAUGACAAA [FmnAX 5 #OpenEnded #K4Late #CoaxialStacking]” the “apparent KD of K4 kissing-loop reporter” value was 336 nM. “UGAGAUAUGAGGGAUACCAGCCAUAAGGAAAGUGUGAUGAGUGAUGUUCUGACAAGCCAAGGCCCUUGGCAGCUUUAAUAGCAUC [whbob_SS_Theo_B_th77]” was tested, and the “apparent KD of K4 kissing-loop reporter” value was 267 nM. “GUGCGCGCGGCGGCCGCCACUCGCAUGAGAGUGAUGUUCUCGGGACUGACGGAAGUCAGUCAUGGGAGGACCGGGCCGGGCUGCG [#2 Same State - Tryptophan B Attempt #13 (HarryS)]” was tested, and the “apparent KD of K4 kissing-loop reporter” value was 521 nM. For “UGGAGUUGACGAAAAGUCAACUCCAGAGAAGGAGCGGACGAAAGUCCAGGUAGGUCGCUCACUACCAGUGAUGUUGGUACUUGAA”, the “apparent KD of K4 kissing-loop reporter” value was 218 nM.
